Source: patent publication US4793986A, “Macromolecular platinum antitumor compounds” (Johnson Matthey, Inc., priority 1987, dated 1988)

What was measured:
L1210 = assay: Lifespan summary, L1210; type: in vivo, mice; conditions: i.p.; for AWG D.5: day 5
[1] = cited from earlier work
L1210 Leukemia = assay: Effect on L1210 Leukemia; type: in vivo, mice; conditions: i.p.; for AWG D.5: day 5
Pt release = type: physicochemical; parameters: unit not given here
B16-F10 = assay: In-vitro cytotoxicity testing, B16-F10; type: cell-based; conditions: B16-F10 (murine melanoma)
Source text: (§1) IN-VITRO CY[…]^1
(§2) IC50 (ug/ml)/Active Dilution
B16F10 -- Murine melanoma

SW1271 = assay: In-vitro cytotoxicity testing, SW1271; type: cell-based; conditions: SW1271 (human lung)
Source text: as §1, §2

A549 = assay: In-vitro cytotoxicity testing, A549; type: cell-based; conditions: A549 (human lung)
Source text: IN-VITRO CYTOTOXICITY TESTING^1
as §2

HCT-116 = assay: In-vitro cytotoxicity testing, HCT-116; type: cell-based; conditions: HCT-116 (human colon)
Source text: as §1, §2

[2] = 4 mg/kg/dose, Q01DX1;1, vehicle BS
[3] = 6 mg/kg/dose, Q01DX1;1, vehicle BS
[4] = 8 mg/kg/dose, Q01DX1;1, vehicle BS
[5] = 10 mg/kg/dose, Q01DX1;1, vehicle BS
[6] = pH 5.80, 1 h, 0.1M phosphate buffer
[7] = pH 5.80, 24 h, 0.1M phosphate buffer
[8] = pH 5.80, 48 h, 0.1M phosphate buffer
[9] = pH 7.00, 1 h, 0.1M phosphate buffer
[10] = pH 7.00, 24 h, 0.1M phosphate buffer
[11] = pH 7.00, 48 h, 0.1M phosphate buffer
[12] = pH 8.00, 1 h, 0.1M phosphate buffer
[13] = pH 8.00, 24 h, 0.1M phosphate buffer
[14] = pH 8.00, 48 h, 0.1M phosphate buffer
[15] = 160 mg/kg/dose, Q01DX1;1, H2O + tween 80
[16] = 240 mg/kg/dose, Q01DX1;1, H2O + tween 80
[17] = 320 mg/kg/dose, Q01DX1;1, H2O + tween 80
[18] = 400 mg/kg/dose, Q01DX1;1, H2O + tween 80
[19] = 80 mg/kg/dose, Q01DX1;1, H2O + tween 80
[20] = 120 mg/kg/dose, Q01DX1;1, H2O + tween 80

## N.N.[Cl][Pt][Cl] [Cisplatin, cis-diamino dichloroplatinum(II)]
L1210; [2]
  % T/C: 129%
  Med. S.T.: 9.0
  AWG D.5: -0.7 Gm
L1210; [3]
  % T/C: 157%
  Med. S.T.: 11.0
  AWG D.5: -2.1 Gm
L1210; [4]
  % T/C: 171%
  Med. S.T.: 12.0
  AWG D.5: -2.8 Gm
L1210; [5]
  % T/C: 171%
  Med. S.T.: 12.0
  AWG D.5: -3.3 Gm
[1]; cisplatin as a drug
  nausea and vomiting: nausea and vomiting which cause extreme discomfort for the patient
L1210 Leukemia; [2]
  % T/C: 129%
  Med. S.T.: 9.0
  AWG D.5: 0.2 Gm
L1210 Leukemia; [3]
  % T/C: 157%
  Med. S.T.: 11.0
  AWG D.5: -0.9 Gm
L1210 Leukemia; [4]
  % T/C: 136%
  Med. S.T.: 9.5
  AWG D.5: -1.4 Gm
L1210 Leukemia; [5]
  % T/C: 171%
  Med. S.T.: 12.0
  AWG D.5: -2.4 Gm

## N.N.O=C([O-])C1(C(=O)[O-])CCC1.[Pt+2] [carboplatin]
[1]; carboplatin, relative to cisplatin
  nephrotoxicity: decreased nephrotoxicity

## Pt-Isoserinato Dextran [Example 5]
Pt release; [6]
  Pt release: 9.5
Pt release; [7]
  Pt release: 72.5
Pt release; [8]
  Pt release: 88.5
Pt release; pH 5.80, 120 h, 0.1M phosphate buffer
  Pt release: 98.7
Pt release; [9]
  Pt release: 8.8
Pt release; [10]
  Pt release: 61.1
Pt release; [11]
  Pt release: 76.3
Pt release; pH 7.00, 120 h, 0.1M phosphate buffer
  Pt release: 89.3
Pt release; [12]
  Pt release: 8.8
Pt release; [13]
  Pt release: 55.7
Pt release; [14]
  Pt release: 66.9
Pt release; pH 8.00, 120 h, 0.1M phosphate buffer
  Pt release: 76.2

## Pt-Malonato Dextran (Method A) [Example 1]
Pt release; pH 5.60, 2 h
  Pt release: 0.6
Pt release; pH 5.60, 24 h
  Pt release: 4.3
Pt release; pH 5.60, 48 h
  Pt release: 6.8
Pt release; pH 5.60, 72 h
  Pt release: 8.2
Pt release; pH 6.80, 2 h
  Pt release: 0.5
Pt release; pH 6.80, 24 h
  Pt release: 6.6
Pt release; pH 6.80, 48 h
  Pt release: 10.2
Pt release; pH 6.80, 72 h
  Pt release: 13.3
Pt release; pH 8.30, 2 h
  Pt release: 1.3
Pt release; pH 8.30, 24 h
  Pt release: 7.2
Pt release; pH 8.30, 48 h
  Pt release: 10.3
Pt release; pH 8.30, 72 h
  Pt release: 13.8
B16-F10
  IC50: 426 µg/mL
SW1271
  IC50: 408 µg/mL
A549
  IC50: > 500 µg/mL
HCT-116
  IC50: > 500 µg/mL

## Pt-Malonato Dextran (Method B) [Example 2]
L1210; [15]
  % T/C: 107%
  Med. S.T.: 7.5
L1210; [16]
  % T/C: 121%
  Med. S.T.: 8.5
L1210; [17]
  % T/C: 114%
  Med. S.T.: 8.0
L1210; [18]
  % T/C: 143%
  Med. S.T.: 10.0
B16-F10
  IC50: 332 µg/mL
SW1271
  IC50: > 500 µg/mL
L1210 Leukemia; [19]
  % T/C: 100%
  Med. S.T.: 7.0
L1210 Leukemia; [20]
  % T/C: 100%
  Med. S.T.: 7.0
L1210 Leukemia; [15]
  % T/C: 107%
  Med. S.T.: 7.5
HCT-116
  IC50: 430 µg/mL

## Pt-Malonato Inulin [Example 7]
Pt release; pH 5.42, 1 h
  Pt release: 4.7
Pt release; pH 5.42, 24 h
  Pt release: 18.1
Pt release; pH 5.42, 48 h
  Pt release: 20.5
Pt release; pH 5.42, 72 h
  Pt release: 26.2
Pt release; pH 5.42, 144 h
  Pt release: 27.5
Pt release; pH 6.76, 1 h
  Pt release: 3.1
Pt release; pH 6.76, 24 h
  Pt release: 15.2
Pt release; pH 6.76, 48 h
  Pt release: 18.3
Pt release; pH 6.76, 72 h
  Pt release: 20.0
Pt release; pH 6.76, 144 h
  Pt release: 22.7
Pt release; pH 7.86, 1 h
  Pt release: 4.9
Pt release; pH 7.86, 24 h
  Pt release: 17.8
Pt release; pH 7.86, 48 h
  Pt release: 21.0
Pt release; pH 7.86, 72 h
  Pt release: 21.9
Pt release; pH 7.86, 144 h
  Pt release: 28.8

## Pt-Malonato Xylan [Example 9]
Pt release; [6]
  Pt release: 3.1
Pt release; [7]
  Pt release: 22.6
Pt release; [8]
  Pt release: 29.8
Pt release; pH 5.80, 72 h, 0.1M phosphate buffer
  Pt release: 32.8
Pt release; pH 5.80, 144 h, 0.1M phosphate buffer
  Pt release: 41.9
Pt release; [9]
  Pt release: 2.1
Pt release; [10]
  Pt release: 17.9
Pt release; [11]
  Pt release: 23.7
Pt release; pH 7.00, 72 h, 0.1M phosphate buffer
  Pt release: 27.5
Pt release; pH 7.00, 144 h, 0.1M phosphate buffer
  Pt release: 40.9
Pt release; [12]
  Pt release: 1.7
Pt release; [13]
  Pt release: 18.9
Pt release; [14]
  Pt release: 25.4
Pt release; pH 8.00, 72 h, 0.1M phosphate buffer
  Pt release: 28.2
Pt release; pH 8.00, 144 h, 0.1M phosphate buffer
  Pt release: 35.8

## Pt-malonato dextran [Pt-malonato dextran of Example 3]
Pt release; pH 5.50, 1 h
  Pt release: 0.6
Pt release; pH 5.50, 16 h
  Pt release: 5.2
Pt release; pH 5.50, 40 h
  Pt release: 6.4
Pt release; pH 5.50, 64 h
  Pt release: 7.6
Pt release; pH 7.10, 1 h
  Pt release: 0.6
Pt release; pH 7.10, 16 h
  Pt release: 4.2
Pt release; pH 7.10, 40 h
  Pt release: 4.9
Pt release; pH 7.10, 64 h
  Pt release: 6.1
Pt release; pH 8.20, 1 h
  Pt release: 0.7
Pt release; pH 8.20, 16 h
  Pt release: 4.2
Pt release; pH 8.20, 40 h
  Pt release: 5.1
Pt release; pH 8.20, 64 h
  Pt release: 6.4
